# Measured values: paper PMC3184176
# Numbering of substitutions follows the chain as printed.
# T1: Pot1-DBD_S123A (Schizosaccharomyces pombe, UniProt O13988 1-389, S123A)
# T1 sequence: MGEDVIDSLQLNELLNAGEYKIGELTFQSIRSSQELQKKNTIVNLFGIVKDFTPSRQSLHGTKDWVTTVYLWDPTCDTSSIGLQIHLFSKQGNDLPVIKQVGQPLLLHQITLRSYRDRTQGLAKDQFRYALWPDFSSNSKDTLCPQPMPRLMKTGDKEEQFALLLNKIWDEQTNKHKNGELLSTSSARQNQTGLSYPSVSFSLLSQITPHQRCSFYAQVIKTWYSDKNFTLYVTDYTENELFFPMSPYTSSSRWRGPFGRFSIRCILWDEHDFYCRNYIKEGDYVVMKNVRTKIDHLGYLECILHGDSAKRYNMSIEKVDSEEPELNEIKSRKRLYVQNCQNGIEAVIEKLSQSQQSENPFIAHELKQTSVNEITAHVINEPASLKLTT
# T2: Pot1-DBD_F88A (Schizosaccharomyces pombe, UniProt O13988 1-389, F88A)
# T2 sequence: T1 sequence with F88A, A123S
# T3: FL-Pot1 (Schizosaccharomyces pombe, UniProt O13988 1-555)
# T3 sequence: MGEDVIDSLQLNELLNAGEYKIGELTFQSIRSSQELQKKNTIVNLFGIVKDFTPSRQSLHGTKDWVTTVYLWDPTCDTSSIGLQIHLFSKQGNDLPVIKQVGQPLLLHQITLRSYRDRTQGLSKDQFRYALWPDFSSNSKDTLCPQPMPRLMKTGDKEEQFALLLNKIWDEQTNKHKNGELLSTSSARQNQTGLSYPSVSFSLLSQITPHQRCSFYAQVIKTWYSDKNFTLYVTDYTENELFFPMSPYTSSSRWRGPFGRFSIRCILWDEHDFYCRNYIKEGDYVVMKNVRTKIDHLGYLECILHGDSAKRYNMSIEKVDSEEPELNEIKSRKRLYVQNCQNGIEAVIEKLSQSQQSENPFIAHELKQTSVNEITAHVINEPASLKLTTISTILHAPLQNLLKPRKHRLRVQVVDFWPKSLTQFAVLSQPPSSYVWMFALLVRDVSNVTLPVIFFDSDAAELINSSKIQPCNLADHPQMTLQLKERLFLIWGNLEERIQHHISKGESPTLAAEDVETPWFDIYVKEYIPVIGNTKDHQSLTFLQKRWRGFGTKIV
# T4: Pot1-DBD_Y115A (Schizosaccharomyces pombe, UniProt O13988 1-389, Y115A)
# T4 sequence: T1 sequence with Y115A, A123S
# T5: Pot1-DBD_T62A (Schizosaccharomyces pombe, UniProt O13988 1-389, T62A)
# T5 sequence: T1 sequence with T62A, A123S
# T6: Pot1-DBD_D64A (Schizosaccharomyces pombe, UniProt O13988 1-389, D64A)
# T6 sequence: T1 sequence with D64A, A123S
# T7: Pot1-DBD (Schizosaccharomyces pombe, UniProt O13988 1-389)
# T7 sequence: T1 sequence with A123S
# T8: Pot1-DBD_L122A (Schizosaccharomyces pombe, UniProt O13988 1-389, L122A)
# T8 sequence: T1 sequence with L122A, A123S
# Molecular target: T1, Pot1-DBD_S123A
# Test: EMSA
row,Binder,Kd
1,GGTTACGGTTACGGT (ssDNA) [15mer],3.7 ± 0.3 pM
2,GGTTACGGTTAC (ssDNA) [12mer],8.2 ± 0.9 pM

# Molecular target: T2, Pot1-DBD_F88A
# Test: EMSA
row,Binder,Kd
1,GGTTACGGTTACGGT (ssDNA) [15mer],120 ± 30 pM
2,GGTTACGGTTAC (ssDNA) [12mer],7700 ± 1800 pM

# Molecular target: T3, FL-Pot1
# Test: EMSA
row,Binder,Kd
1,GGTTACGGTTACGGTT (ssDNA) [16mer],2.2 ± 0.04 pM
2,GGTTACGGTTACGG (ssDNA) [14mer],2.4 ± 0.4 pM
3,GGTTACGGTTACGGTTAC (ssDNA) [18mer],3.8 ± 0.3 pM
4,TTTTTTTTTTTTTTT (ssDNA) [T15],8600 ± 1900 pM
5,GGTTACCCAATGCCA (ssDNA) [6mer_9 comp],3.8 ± 0.1 pM
6,GGTTACGGTTACG (ssDNA) [13mer],2.3 ± 0.3 pM
7,GGTTACTTTTTT (ssDNA) [6mer_T6],3.2 ± 0.3 pM
8,GGTTACTTTTTTTTT (ssDNA) [6mer_T9],2.6 ± 0.2 pM
9,"GGUTACGGTTACGGT (ssDNA, U at 3 = deoxyuridine) [15_T3U]",2.6 ± 0.2 pM
10,GGTTACCCAATG (ssDNA) [6mer_6 comp],9.5 ± 0.3 pM
11,GGTTACGGTTACGGTTA (ssDNA) [17mer],2.3 ± 0.1 pM
12,GGTTACACGGTTACACGGT (ssDNA) [15mer_2xAC],3.2 ± 0.3 pM
13,CGTTTGCCAATGCCA (ssDNA) [15 comp GTT],10600 ± 300 pM
14,GGTTACGGTTACGGT (ssDNA) [15mer],2.2 ± 0.1 pM
15,"GGTUACGGTTACGGT (ssDNA, U at 4 = deoxyuridine) [15_T4U]",3 ± 0.4 pM
16,GGTTACGGTTAC (ssDNA) [12mer],2.8 ± 0.4 pM

# Molecular target: T4, Pot1-DBD_Y115A
# Test: EMSA
row,Binder,Kd
1,GGTTACGGTTACGGT (ssDNA) [15mer],8 ± 0.7 pM
2,GGTTACGGTTAC (ssDNA) [12mer],49 ± 5 pM

# Molecular target: T5, Pot1-DBD_T62A
# Test: EMSA
row,Binder,Kd
1,GGTTACGGTTACGGT (ssDNA) [15mer],6.2 ± 0.6 pM
2,GGTTACGGTTAC (ssDNA) [12mer],48 ± 8 pM

# Molecular target: T6, Pot1-DBD_D64A
# Test: EMSA
row,Binder,Kd
1,GGTTACGGTTACGGT (ssDNA) [15mer],18 ± 2.4 pM
2,GGTTACGGTTAC (ssDNA) [12mer],3400 ± 670 pM

# Molecular target: T7, Pot1-DBD
# Test: EMSA
row,Binder,Kd
1,GGTTACGGTTACGGT (ssDNA) [15mer],2.9 ± 0.3 pM
2,GGTTACGGTTAC (ssDNA) [12mer],4 ± 0.3 pM

# Molecular target: T8, Pot1-DBD_L122A
# Test: EMSA
row,Binder,Kd
1,GGTTACGGTTACGGT (ssDNA) [15mer],10 ± 1.4 pM
2,GGTTACGGTTAC (ssDNA) [12mer],770 ± 230 pM
